Data published in the supplement of paper PMC7877785.
± gives the uncertainty stated by the source.

Assay: self-splicing fitness, log relative to wild type (ln ratio); higher = more splicing; Tetrahymena group I intron in knt gene, E. coli kanamycin selection, DiMSum; sequences stand for … in CUCUCU…GGAGGGAAAAGUUAUCAGGCAUGCACCUGGUAGCUAGUCUUUAAACCAAUAGAUUGCAUCGGUUUAAAAGGCAAGACCGUCAAAUUGCGGGAAAGGGGUCAACAGCCGUUCAGUACCAAGUCUCAGGGGAAACUUUGAGAUGGCCUUGCAAAGGGUAUGGUAAUAAGCUGACGGACAUGGUCCUAACCACGCAGCCAAGUCCUAAGUCAACAGAUCUUCUGUUGAUAUGGAUGCAGUUCACAGACUAAAUGUCGGUCGGGGAAGAUGUAUUCUUCUCAUAAGAUAUAGUCGGACCUCUCCUUAAUGGGAGCUAGCGGAUGAAGUGAUGCAACACUGGAGCCGCUGGGAACUAAUUUGUAUGCGAAAGUAUAUUGAUUAGUUUUGGAGUACUCGUGGUCG
Method in brief: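 Fitness was computed with DiMSum as the error-weighted combination of replicate fold changes, kanamycin versus none, each normalised to wild type. The library randomised all eight intron nucleotides of the P1ex region, with the intron placed in the knt kanamycin-resistance gene on pET-22b(+) in E. coli BL21(DE3). Six replicate transformations were grown overnight at 37°C or 30°C on LB agar with or without 25 μg/mL kanamycin, plus 100 μg/mL carbenicillin, 50 μM IPTG and 0.2% rhamnose. Pooled colonies were amplicon-sequenced on an Illumina HiSeq 2500.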

| Sequence | self-splicing fitness (ln) (30 °C) | self-splicing fitness (ln) (37 °C) |
| --- | --- | --- |
| UGAAAGCAAUAUUACGUGCC | -0.125 ± 0.12 | -0.826 ± 0.15 |
| GUUAAGCAAUAUUACGGGCU | -4.09 ± 0.34 | -1.85 ± 0.2 |
| GAAGAGCAAUAUUACGUUCC | -4.33 ± 0.28 | -2.04 ± 0.31 |
| CGCAAGCAAUAUUACGCACU | -0.441 ± 0.092 | -0.325 ± 0.11 |
| CAUCAGCAAUAUUACGGUGA | -1.63 ± 0.12 | -1.4 ± 0.12 |
| AACGAGCAAUAUUACGGAGU |  | -1.74 ± 0.14 |
| CGCCAGCAAUAUUACGCUUA | -3.1 ± 0.21 | -1.87 ± 0.17 |
| UACUAGCAAUAUUACGGUUA | -0.377 ± 0.1 | 0.35 ± 0.12 |
| CUCUAGCAAUAUUACGUUCG | -3.54 ± 0.19 | -2.33 ± 0.18 |
| GUACAGCAAUAUUACGCCUU | -1.23 ± 0.095 | -0.531 ± 0.11 |
| UAGAAGCAAUAUUACGCCAU | -1.02 ± 0.4 |  |
| CUGCAGCAAUAUUACGCCUU | -2.87 ± 0.15 | -2.94 ± 0.29 |
| CAGAAGCAAUAUUACGAUGA | -2.08 ± 0.12 | -0.735 ± 0.086 |
| CAGUAGCAAUAUUACGGGAA | -2.93 ± 0.26 | -2.44 ± 0.25 |
| UACCAGCAAUAUUACGACUG | -4.48 ± 0.39 | -3.05 ± 0.25 |
| AAUAAGCAAUAUUACGGCAC | -1.44 ± 0.11 | -0.634 ± 0.14 |
| AUUCAGCAAUAUUACGCGUA | -1.16 ± 0.086 | -0.145 ± 0.11 |
| GUUGAGCAAUAUUACGCAAG | -2.77 ± 0.21 | -1.79 ± 0.26 |
| GAUUAGCAAUAUUACGGUCA | -1.38 ± 0.15 | -1.2 ± 0.12 |
| GUAGAGCAAUAUUACGUCGU | -0.814 ± 0.084 | -0.0553 ± 0.11 |

| Sequence | self-splicing fitness (ln) (30 °C) | self-splicing fitness (ln) (37 °C) |
| --- | --- | --- |
| CUAUAGCAAUAUUACGAUGA | -1.92 ± 0.16 | -1.3 ± 0.17 |
| ACAGAGCAAUAUUACGGCCU | -3.08 ± 0.29 | -2.6 ± 0.25 |
| CCAAAGCAAUAUUACGCAAC | -1.96 ± 0.1 | -2.53 ± 0.23 |
| GCCUAGCAAUAUUACGAAAA | -3.05 ± 0.33 | -1.04 ± 0.26 |
| AAGCAGCAAUAUUACGUCGA | -1.03 ± 0.12 | -0.392 ± 0.11 |
| UGAUAGCAAUAUUACGGCAG | 0.188 ± 0.17 | 0.0746 ± 0.18 |
| UUCUAGCAAUAUUACGGUUG | -1.64 ± 0.11 | -1.78 ± 0.17 |
| GUUAAGCAAUAUUACGGGAU | -2.31 ± 0.14 | -0.169 ± 0.14 |
| AAGUAGCAAUAUUACGGGCU | -2.02 ± 0.12 | -1.44 ± 0.13 |
| UGUAAGCAAUAUUACGCCAG | -1.82 ± 0.34 | -1.07 ± 0.33 |
| UGCUAGCAAUAUUACGUUAC |  | -1.91 ± 0.23 |
| GUCGAGCAAUAUUACGAUAG | -4.14 ± 0.47 |  |
| GUAGAGCAAUAUUACGCUAC | -2.54 ± 0.25 | -2.15 ± 0.34 |
| CGGAAGCAAUAUUACGGCCA | 0.0398 ± 0.097 | 0.672 ± 0.16 |
| CAGGAGCAAUAUUACGCCCG | -2.75 ± 0.42 | -0.874 ± 0.37 |
| GGACAGCAAUAUUACGAAGC | -0.729 ± 0.079 | 0.158 ± 0.097 |
| CCCUAGCAAUAUUACGCGAA | -1.83 ± 0.2 | -2.2 ± 0.23 |
| AACGAGCAAUAUUACGAAGG |  | -2.3 ± 0.2 |
| CCUAAGCAAUAUUACGGCAG | -2.09 ± 0.084 | -1.21 ± 0.098 |
